The text below walks through data of the supplement of paper PMC5998384.

In series [1] the test system is HeLa Kyoto. Nature of the series: solubility in G1/S (NP-40 vs SDS abundance) (log2 ratio); higher = more soluble. The following applies: cell cycle stage: G1/S.
Series [2] deals with HeLa Kyoto. Nature of the series: solubility change mitosis vs G1/S (difference of NP-40 vs SDS log2 ratios) (log2 ratio difference); higher = more soluble in mitosis.
The test system of series [3] is HeLa Kyoto. Nature of the series: thermal stability score vs G1/S (z-score of summed log2 fold changes over temperatures); higher = more thermally stable than in G1/S.
Where [4] appears, read: cell cycle stage: early G1 (4.5 h after nocodazole release).
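For solubility change mitosis vs G1/S (difference of NP-40 vs SDS log2 ratios) in this document: synchronized HeLa Kyoto cells (double thymidine block for G1/S, nocodazole release for mitosis), protein amounts in NP-40 versus SDS lysates quantified by mass spectrometry, three biological replicates.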
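For solubility in G1/S (NP-40 vs SDS abundance) in this document: HeLa Kyoto cells arrested at G1/S by double thymidine block, proteins quantified by TMT10plex mass spectrometry in mild NP-40 versus SDS extracts, three biological replicates.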
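For thermal stability score vs G1/S (z-score of summed log2 fold changes over temperatures) in this document: synchronized HeLa Kyoto cells, proteins quantified by TMT10plex mass spectrometry, three biological replicates, mitosis taken 0.5 h after nocodazole release, G1/S directly after double thymidine block.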

With “MPLELTQSRVQKIWVPVDHRPSLPRSCGPKLTNSPTVIVMVGLPARGKTYISKKLTRYLNWIGVPTKVFNVGEYRREAVKQYSSYNFFRPDNEEAMKVRKQCALAALRDVKSYLAKEGGQIAVFDATNTTRERRHMILHFAKENDFKAFFIESVCDDPTVVASNIMEVKISSPDYKDCNSAEAMDDFMKRISCYEASYQPLDPDKCDRDLSLIKVIDVGRRFLVNRVQDHIQSRIVYYLMNIHVQPRTIYLCRHGENEHNLQGRIGGDSGLSSRGKKFASALSKFVEEQNLKDLRVWTSQLKSTIQTAEALRLPYEQWKALNEIDAGVCEELTYEEIRDTYPEEYALREQDKYYYRYPTGESYQDLVQRLEPVIMELERQENVLVICHQAVLRCLLAYFLDKSAEEMPYLKCPLHTVLKLTPVAYGCRVESIYLNVESVCTHRERSEDAKKGPNPLMRRNSVTPLASPEPTKKPRINSFEEHVASTSAALPSCLPPEVPTQLPGQNMKGSRSSADSSRKH [PFKFB3]”, the “solubility in G1/S (log2)” value in series [1] was 0.239. In addition, in series [2], the “solubility change mitosis (log2)” value is -0.103. For the same sequence, the thermal stability score in series [3] (setting [4]) was determined as 2.73; in series [3] (cell cycle stage: mitosis), 0.713.
The like results for “MPPKTPRKTAATAAAAAAEPPAPPPPPPPEEDPEQDSGPEDLPLVRLEFEETEEPDFTALCQKLKIPDHVRERAWLTWEKVSSVDGVLGGYIQKKKELWGICIFIAAVDLDEMSFTFTELQKNIEISVHKFFNLLKEIDTSTKVDNAMSRLLKKYDVLFALFSKLERTCELIYLTQPSSSISTEINSALVLKVSWITFLLAKGEVLQMEDDLVISFQLMLCVLDYFIKLSPPMLLKEPYKTAVIPINGSPRTPRRGQNRSARIAKQLENDTRIIEVLCKEHECNIDEVKNVYFKNFIPFMNSLGLVTSNGLPEVENLSKRYEEIYLKNKDLDARLFLDHDKTLQTDSIDSFETQRTPRKSNLDEEVNVIPPHTPVRTVMNTIQQLMMILNSASDQPSENLISYFNNCTVNPKESILKRVKDIGYIFKEKFAKAVGQGCVEIGSQRYKLGVRLYYRVMESMLKSEEERLSIQNFSKLLNDNIFHMSLLACALEVVMATYSRSTSQNLDSGTDLSFPWILNVLNLKAFDFYKVIESFIKAEGNLTREMIKHLERCEHRIMESLAWLSDSPLFDLIKQSKDREGPTDHLESACPLNLPLQNNHTAADMYLSPVRSPKKKGSTTRVNSTANAETQATSAFQTQKPLKSTSLSLFYKKVYRLAYLRLNTLCERLLSEHPELEHIIWTLFQHTLQNEYELMRDRHLDQIMMCSMYGICKVKNIDLKFKIIVTAYKDLPHAVQETFKRVLIKEEEYDSIIVFYNSVFMQRLKTNILQYASTRPPTLSPIPHIPRSPYKFPSSPLRIPGGNIYISPLKSPYKISEGLPTPTKMTPRSRILVSIGESFGTSEKFQKINQMVCNSDRVLKRSAEGSNPPKPLKKLRFDIEGSDEADGSKHLPGESKFQQKLAEMTSTRTRMQKQKMNDSMDTSNKEEK [RB1]” were, in that order, 0.147, -0.0546, 0.441 and 2.18.
For “MQRRRRPPPPTSRLPEGCGGGGGGSEEVEVQFSAGRWGSAAAVSAAAAAATRSTEEEEERLEREHFWKIINAFRYYGTSMHERVNRTERQFRSLPANQQKLLPQFLLHLDKIRKCIDHNQEILLTIVNDCIHMFENKEYGEDGNGKIMPASTFDMDKLKSTLKQFVRDWSETGKAERDACYQPIIKEILKNFPKERWDPSKVNILVPGAGLGRLAWEIAMLGYACQGNEWSFFMLFSSNFVLNRCSEINKYKLYPWIHQFSNNRRSADQIRPIFFPDVDPHSLPPGSNFSMTAGDFQEIYSECNTWDCIATCFFIDTAHNVIDYIDTIWKILKPGGIWINLGPLLYHFENLANELSIELSYEDIKNVVLQYGFKVEVEKESVLSTYTVNDLSMMKYYYECVLFVVRKPQ [CARNMT1]” the same measures were -0.164, -0.117, 1.2 and 1.42.
The like results for “MQTSEREGSGPELSPSVMPEAPLESPPFPTKSPAFDLFNLVLSYKRLEIYLEPLKDAGDGVRYLLRWQMPLCSLLTCLGLNVLFLTLNEGAWYSVGALMISVPALLGYLQEVCRARLPDSELMRRKYHSVRQEDLQRGRLSRPEAVAEVKSFLIQLEAFLSRLCCTCEAAYRVLHWENPVVSSQFYGALLGTVCMLYLLPLCWVLTLLNSTLFLGNVEFFRVVSEYRASLQQRMNPKQEEHAFESPPPPDVGGKDGLMDSTPALTPTEDLTPGSVEEAEEAEPDEEFKDAIEETHLVVLEDDEGAPCPAEDELALQDNGFLSKNEVLRSKVSRLTERLRKRYPTNNFGNCTGCSATFSVLKKRRSCSNCGNSFCSRCCSFKVPKSSMGATAPEAQRETVFVCASCNQTLSK [ZFYVE27]” were, in that order, -0.196, -0.198, 0.202 and -1.24.
Take “MRGKTFRFEMQRDLVSFPLSPAVRVKLVSAGFQTAEELLEVKPSELSKEVGISKAEALETLQIIRRECLTNKPRYAGTSESHKKCTALELLEQEHTQGFIITFCSALDDILGGGVPLMKTTEICGAPGVGKTQLCMQLAVDVQIPECFGGVAGEAVFIDTEGSFMVDRVVDLATACIQHLQLIAEKHKGEEHRKALEDFTLDNILSHIYYFRCRDYTELLAQVYLLPDFLSEHSKVRLVIVDGIAFPFRHDLDDLSLRTRLLNGLAQQMISLANNHRLAVILTNQMTTKIDRNQALLVPALGESWGHAATIRLIFHWDRKQRLATLYKSPSQKECTVLFQIKPQGFRDTVVTSACSLQTEGSLSTRKRSRDPEEEL [RAD51C]”: the “solubility in G1/S (log2)” value in series [1] amounted to 0.00866. Further, in series [2], the “solubility change mitosis (log2)” value came to 0.0331. For the same sequence, the values for the thermal stability score in series [3] (setting [4]) and in series [3] (cell cycle stage: mitosis) were -0.288 and -0.541, respectively.
